Data on 1 molecule can be found in patent US20120039879A1.

Assay [1] concerns the target ROBO1 (UniProt Q9Y6N7). As to the kind of experiment: ITC, compared with the scFv alone. A general note: ITC needs no label: the signal is the heat of the interaction.
In assay [2] the target is ROBO1 (UniProt Q9Y6N7). Nature of the assay: ITC, ROBO1 titrated into B5209B mouse-scFv-mcSA414 (3.7 µM), 25° C., PBS.
Assay [3] deals with ROBO1 (UniProt Q9Y6N7). Nature of the assay: ITC, one-site model (OneSites): ROBO1 injected into B5209B mouse-scFv-mcSA414 (3.7 uM) at 25 C in PBS.
Assay [4] addresses ROBO1 (UniProt Q9Y6N7). Nature of the assay: ITC, ROBO1 titrated into B5209B mouse-scFv-mcSA414 (3.7 µM), 25° C., PBS; ITC, 25 C, PBS, ROBO1 titrated into the scFv-mcSA414 tetramer (3.7 uM).

B1: B5209B mouse-scFv-mcSA414 (protein)
chain: MAEVQLVESGGGVVQPGGSLKLSCAASGFTFSTYDMSWVRQTPDKRLELVATINSNGGSTYYPDSVKGRFTSSRDNAKNILYLQMSSLKSEDTAMYYCAREALLRPPYYALDYWGQGTSVTVSSAGGGGSGGGGSGGGGSDILDIQMTQSPASLSASVGETVTITCGASENIYGALTWYQRKQGKSPQLLIYGAINLADDKSSRFSGSGSGRQYSLKISSLHPDDVATYYCQNVLSTPFTFGSGTKLEIKAAGSSGSGSAAEAGITGTWSNQLGSTFIVTAGADGALTGTYESAVGNAESRYVLTGRYDSAPATDGSGTALGWTVAWKNNSKNAHSATTWSGQYVGGADAKINTQWLLTSGTTQANAWKSTLVGHDTFTKVKPSAASGARHHHHHH
As usually defined, the Kd is a measure of binding affinity in units of concentration. A higher Kd goes with a looser complex. B1: in assay [1], the reduction in affinity compared with scFV came to 10 fold and the ΔS value relative to scFV (ratio to scFV) is 0.025. For the same molecule, in assay [2], the binding ratio (molecules of ROBO1 per tetramer) was determined as 2, the enthalpy change (ΔH) is -3.85 kcal/mol and the entropy change (ΔS) was -22 J/mol·K. The N (fitted stoichiometry, ROBO1 per scFv-mcSA414 in the cell) in assay [3] is 0.334. This molecule also returned a Kd in assay [4] of 33 nM.
